The target in the test is HA-tagged full-length pebble (Pbl) (Drosophila). Kind of test: co-IP.

With “Sema-1a ICD[36G/52A] (domain or fragment)”, the percent reduction in binding against wild-type ICD was determined as 33%. The same measure for “Sema-1a ICD[Δ31–60] (domain or fragment)”: 44%.

The record behind these values is article PMC3520155.
